The text below walks through data of patent US20100159011A1, “Compositions For Biomedical Applications” (University of Massachusetts Medical School, priority 2007, published 2010).

The assay relates to murine macrophage RAW264.7 cells. Briefly: Osteoclastic differentiation of RAW264.7 cells (TRAP stain). The assay is classed as cell-based. Particulars: for osteoclast differentiation of RAW264.7 (TRAP): no graft carrier. The method, then: Grafts (5×5×1 mm, FlexBone 25% HA-25% TCP) were pre-absorbed with varying amounts of growth factors and cytokines to provide an exogenous supply for remodeling. […] The preferred loading dose of RANKL (10 ng/FlexBone graft) was determined by the osteoclastic differentiation of macrophage RAW264.7, induced by the RANKL released from the graft as indicated by positive TRAP stains (purple) of multinucleated cells on Day 6. […] Finally, the preferred loading dose of rhVEGF165 in stimulating the proliferation of human vascular endothelial cells in culture was determined to be 5 ng/graft.
Osteoclastic differentiation of murine macrophage RAW264.7 cells induced by the rmRANKL released from FlexBone. The bioactivity of the exogenous rmRANKL released from FlexBone is evaluated by its ability to induce osteoclastic differentiation of murine macrophage RAW264.7 cells six days after placing the FlexBone graft pre-loaded with rnRANKL in the RAW264.7 culture. RAW264.7 cells were seeded at 10,000/cm^2 in a 24-well plate in alpha-MEM (0.5 mL/well) supplemented with 10% FBS and 1% Pen-Strep, and allowed to attach overnight. One FlexBone or pHEMA graft freshly loaded with 10-ng rmRANKL was then added to each well (N=3 for each combination) on day one, and the culture was continued for 6 days with media change every two days without additional supplement of rmRANKL. In the positive control well, 10 ng rmRANKL was supplemented directly in the culture media without a graft carrier every two days. In the negative control well, 10 ng rmRANKL was supplemented directly in the culture media without a graft carrier on day one, and the medium was changed every two days without any additional supplement of rmRANKL. […] Grafts were removed from all wells before the cells were stained for tartrate-resistant acid phosphatase (TRAP) activities using the Sigma TRAP kit following the manufacturer's instructions.

B1: rmRANKL: recombinant receptor activator of nuclear factor κ ligand, purchased from R&D Systems (protein, UniProt O35235 139-316, looked up)
Tumor necrosis factor ligand …: FSGAPAMMEGSWLDVAQRGKPEAQPFAHLTINAASIPSGSHKVTLSSWYHDRGWAKISNMTLSNGKLRVNQDGFYYLYANICFRHHETSGSVPTDYLQLMVYVVKTSIKIPSSHNLMKGGSTKNWSGNSEFHFYSINVGGFFKLRAGEEISIQVSNPSLLDPDQDATYFGAFKVQDID
B1: the “osteoclast differentiation of RAW264.7 (TRAP)” value is on record as “led to the formation of TRAP-positive multinucleated osteoclasts by day six” (continued supplement of 10-ng every other day, day six) and “not sufficient in inducing the osteoclast differentiation” (single supplement of 10-ng directly to the culture). Moreover, the preferred loading dose (determined by osteoclastic differentiation of RAW264.7, TRAP stains on Day 6) is 10 ng/FlexBone graft. The “supplement needed every other day to induce differentiation” value (no graft control) is given as 5 ng.
